# Publication PMC5296606, “A Ferredoxin- and F420H2-Dependent, Electron-Bifurcating, Heterodisulfide Reductase with Homologs in the Domains Bacteria and Archaea” (mBio, 2017)
# B1: HdrB2C2 (Methanosarcina acetivorans C2A) (protein)
# chain: MAKLSLFRGCIVPNRYPGIEKATKLCLQKLEVDAVDLPGASCCPAPGVFKSFDKATWLALASRNIVLSERMGRDILTVCNGCYGSLADANIELKNDPEMKACTNSCLKEIGMEYKGTAEVRHIIEFLYKELGPEKLKSFITTPLDLKVALHYGCHLIKPSKERNLGETEAPVFFDELVEATGAKSVDYTDKMMCCGAGGGVRSGHAAESLEMLEHKLACIRNAGVDCIVNACPFCHLQFDRGQLAVNEKFGTDYSIPVLHYSQLLGLALGFSPDELGIEQNAIQNIEFLAKIYEISAGLR
# notes: with Heterodisulfide reductase subunit C2 (CoB--CoM heterodisulfide reductase iron-sulfur subunit C 2)
# B2: HdrB2 (Methanosarcina acetivorans C2A) (protein)
# chain: MAKLSLFRGCIVPNRYPGIEKATKLCLQKLEVDAVDLPGASCCPAPGVFKSFDKATWLALASRNIVLSERMGRDILTVCNGCYGSLADANIELKNDPEMKACTNSCLKEIGMEYKGTAEVRHIIEFLYKELGPEKLKSFITTPLDLKVALHYGCHLIKPSKERNLGETEAPVFFDELVEATGAKSVDYTDKMMCCGAGGGVRSGHAAESLEMLEHKLACIRNAGVDCIVNACPFCHLQFDRGQLAVNEKFGTDYSIPVLHYSQLLGLALGFSPDELGIEQNAIQNIEFLAKIYEISAGLR
# B3: HdrA2B2C2 (Methanosarcina acetivorans C2A) (protein)
# chain: MAKLSLFRGCIVPNRYPGIEKATKLCLQKLEVDAVDLPGASCCPAPGVFKSFDKATWLALASRNIVLSERMGRDILTVCNGCYGSLADANIELKNDPEMKACTNSCLKEIGMEYKGTAEVRHIIEFLYKELGPEKLKSFITTPLDLKVALHYGCHLIKPSKERNLGETEAPVFFDELVEATGAKSVDYTDKMMCCGAGGGVRSGHAAESLEMLEHKLACIRNAGVDCIVNACPFCHLQFDRGQLAVNEKFGTDYSIPVLHYSQLLGLALGFSPDELGIEQNAIQNIEFLAKIYEISAGLR
# notes: complex reconstituted by mixing recombinant HdrA2 (C-terminal His6) with copurified HdrB2C2 (His6 on HdrB2); with Heterodisulfide reductase subunit C2 (CoB--CoM heterodisulfide reductase iron-sulfur subunit C 2); H(2)/F420-type heterodisulfide reductase subunit A2 (CoB--CoM heterodisulfide reductase iron-sulfur subunit A 2; HdrA-MvhD fusion)
# Assays:
# Assay type in all cases: biochemical, Methanosarcina acetivorans
# [1] = substrate: C[C@@H](OP(=O)(O)O)[C@H](NC(=O)CCCCCCS)C(=O)O; assay: reverse heterodisulfide reductase assay; conditions: co-substrate HSCoM, 21 °C
# [2] = substrate: O=S(=O)(O)CCS; assay: reverse heterodisulfide reductase assay; conditions: co-substrate HSCoB, 21 °C
# [3] = substrate: C[C@@H](OP(=O)(O)O)[C@H](NC(=O)CCCCCCSSCCS(=O)(=O)O)C(=O)O; assay: forward heterodisulfide reductase assay with reduced methyl viologen; conditions: reduced methyl viologen as electron donor, 21 °C, HdrA2 + HdrB2C2, no ferredoxin
# From the text: forward heterodisulfide reductase assay with reduced methyl viologen on HdrA2B2C2
protein,measurement,setting,value
B1,Km,[1]; no HdrA2,1200 ± 200 µM
same,Km,[2]; no HdrA2,1400 ± 200 µM
same,Vmax,[2]; no HdrA2,0.6 µmol/min/mg
B2,Km,[1]; HdrB2 alone,1100 ± 200 µM
same,Km,[2]; HdrB2 alone,1200 ± 300 µM
same,Vmax,[2]; HdrB2 alone,0.5 µmol/min/mg
B3,Km,[3],50 ± 10 µM
same,Vmax,[3],2.2 µmol/min/mg
